Reference: the DeepSol protein solubility set

Experiment: soluble on expression in E. coli; label from the status in PepcDB or PDB records

Question: For “MSLYEWLNALPKAELHLHLEGTLEPELLFALAERNRIALPWNDVETLRKAYAFNNLQEFLDLYYAGADVLRTEQDFYDLTWAYLQKCKAQNVVHVEPFFDPQTHTDRGIPFEVVLAGIRAALRDGEKLLGIRHGLILSFLRHLSEEQAQKTLDQALPFRDAFIAVGLDSSEVGHPPSKFQRVFDRARSEGFLTVAHAGEEGPPEYIWEALDLLKVERIDHGVRAFEDERLMRRLIDEQIPLTVCPLSNTKLCVFDDMSQHTILDMLERGVKVTVNSDDPAYFGGYVTENFHALQQSLGMTEEQARRLAQNSLDARLVKEGHHHHHH”, which “soluble on expression in E. coli” value is on record?
Answer: soluble

Question: For “FAPLEADHPGRSGLLALLDNPDAYAARALSARMAGRSLDLMYYIWRTDLTGWLLIEELLAAADRGVRVRLLLDDVNVQGFDRAFLALNQHPNVEVRLFNPIRNRGHVLRRTLEMLLGLSRFNRRMHNKAWIADGRLAIVGGRNIGDTYYDAEESGLAMSRDADVMLAGPVVAEVEGLFDSYWNLGLALPILTLWPE”, which “soluble on expression in E. coli” value is on record?
Answer: not soluble

Question: For “MGSDKIHHHHHHMKWNSNLYDHKHSFVAEYGKSMINFVNVGKDQKILDLGCGTGVLTNELAKNGATVIGTDLSKNMIDKAKTNYPNLIFQVKDATNLSFKNEFDTVFSNAVFHWISNQEKLLHSIYTCLKDNGTLICEFGAQNNISQIQTAFEKVIEQKGYSYCSPFFFPSKEEYKLLLDQAGFEVKHIIEYDRPTPLADGEKGLRNWICQFFASDLLEFSDEQKEQILFETEKLCKNSIWKNNQWVADYRRIQIIAVKNKNNGTK”, which “soluble on expression in E. coli” value is on record?
Answer: not soluble

Question: With “MSLEQMLWDAACSIRGEKDAAKFKDYLLPLLFLKRLSDVFDDEIERLAEEYGDRATALEIAESDHSLLRFYLPPEARWAVISGRESFDWPLDDRGRPTAPRDIGEHLTKAVRAVVKQNPTLSGVIDVVDFAAERNGERDINPAKLRGVVETFSDPRYRLGLADVQPDFLGRAYEYLLRKFAEGSGQSAGEFFTPTEVGFLMAHILRPKPGETCHDYACGSAGLLIKLQLVARELDPTSRVPLKLSGQELQAESYAVAQMNAIIHDMEVELARGDTMINPKFREASGKIRGHDIVVANPMWNQPFAADLFANDPFDRFRTAGGITSGKGDWAWLQHTLACMNDHGRAAVVLDTGAVTRGSGSKNEDKERTIRKWFVEQDLIDGVILLPENLFYNTTAAGVIVVLSRRKPAARKGKIVLLNASRRFKKGRPKNYLPEEDIRPLAAMYLKGEPVEGELAVITTEQAREADYNLSPSRWVGQNGDAEIGSIPNLLRALEQLNEEDASLTSGLLQLLRPLAKTGDAEGHHHHHH” as the sequence, how does the “soluble on expression in E. coli” value read?
Answer: soluble

Question: For “MGSDKIHHHHHHMSAELNQPVPRPGILDIAAYVPGKEHVDGVAKVYKLSSNETPLGPSPKAIEAFSAAASHLEIYPDGQAIALRQAIADVHGLNIANILCGNGSDELLGLLCHVYLGAGDEAIITEHGFLVYKIQIMGAGATPVTVKEKDCVVDVDAILAAVTPKTKMVFLANPGNPTGTYVPVAEIRRLQAGLPKHVVLVLDAAYAEYVRKNDYEAGLELVSGNRNVVMTRTFSKVYGLAALRVGWMYAPVDIIDALNRVRGPFNMSAPAIAAGAAAIRDQAFVQKAVAHNALWMEKLVTTFTGLGLTVTPSVANFILIHFPDQDGKRATDADEFLSRRGYILRAVRGYGFPNALRMTVGSEEANLGVIAALTEFMGQA”, which “soluble on expression in E. coli” value is on record?
Answer: not soluble

Question: Which “soluble on expression in E. coli” value does the source give for “MFRKLGSSGSLWKPKNPHSLEYLKYLQGVLTKNEKVTENNKKILVEALRAIAEILIWGDQNDASVFDFFLERQMLLYFLKIMEQGNTPLNVQLLQTLNILFENIRHETSLYFLLSNNHVNSIISHKFDLQNDEIMAYYISFLKTLSFKLNPATIHFFFNETTEEFPLLVEVLKLYNWNESMVRIAVRNILLNIVRVQDDSMIIFAIKHTKEYLSELIDSLVGLSLEMDTFVRSAENVLANRERLRGKVDDLIDLIHYIGELLDVEAVAESLSILVTTRYLSPLLLSSISPRRDNHSLLLTPISALFFFSEFLLIVRHHETIYTFLSSFLFDTQNTLTTHWIRHNEKYCLEPITLSSPTGEYVNEDHVFFDFLLEAFDSSQADDSKAFYGLMLIYSMFQNNADVGELLSAANFPVLKESTTTSLAQQNLARLRIASTSSISKRTRAITEIGVEATEEDEIFHDVPEEQTLEDLVDDVLVDTENSAISDPEPKNVESESRSRFQSAVDELPPPSTSGCDGRLFDALSSIIKAVGTDDNRIRPITLELACLVIRQILMTVDDEKVHTSLTKLCFEVRLKLLSSIGQYVNGENLFLEWFEDEYAEFEVNHVNFDIIGHEMLLPPAATPLSNLLLHKRLPSGFEERIRTQIVFYLHIRKLERDLTGEGDTELPVRVLNSDQEPVAIGDCINLHNSDLLSCTVVPQQLCSLGKPGDRLARFLVTDRLQLILVEPDSRKAGWAIVRFVGLLQDTTINGDSTDSKVLHVVVEGQPSRIKKRHPVLTAKFIFDDHIRCMAAKQRLTKGRQTARGLKLQAICSALGVPRIDPATMTSSPRMNPFRIVKGCAPGSVRKTVSTSSSSSQGRPGHYSANLRSASRNAGMIPDDPTQPSSSSERRS” here?
Answer: not soluble

Question: For “MHLHISSIPHRNSNNSKGGVLDATGPMLSAKRGALLLQAYHRPGEVISYKAGDYHLVPKKFTVGKRIAVRSYLDRNRTELSDRTFMPQKNWFRPYDLQDGCFDRDHERLSYRFYNLETKVIWKAFDTPELIGMLLHDETVKGNSGMYAPDMLDAALHYTREARYWRCIGITKPFYDRNTLRAHCWEDNGLQVGTLVMSQAMRHALMDLERAVRRKELGLEPNYLWDRWGPIGFIDGARADYLPRFEHNPYVDPDGVDVTEIDVLPFNTHEQIRERYRDFIEPDTAPFEEVFRSPSHGSLTTLADIPNASVVALYKDLKLKAGTPVAGDAVELAPADVRTLFYLSANPEWRAVADGKASWEEVVDAMQPVQAELDEKIDAARLLQNTRHNAERVRAFFEEKCGFHDFMYTPDKTITAAVLCYLTELRRICTETAWGAALAKCLTDMERVQGMGRDAFLVYRHIEDAILDKKRRLWAGRFAGESHEESTLDYLLENFGRRAERPRNVGTTGVEFDREQEPIGRQVQRRVLDSDKANKLAEIRRSRGKMWSKKRSVFDALHEKQLQNFNYGVH”, which “soluble on expression in E. coli” value is on record?
Answer: soluble

Question: For “MGSDKIHHHHHHACEQNEDWVVNEPMQSFEENPEYAPLNTIPDWVSEKVTPKEYELWRTMSSRYEINYSFLKKDISEKRKKEIYDCINNICERIEKGQINKYEGFLNIADEDGTTLSDSQYFGRIATRSPEGGAEYKTNGCTLYTHSLGPYIKAAVTYKKSDDDVTITSSSVYTGSPYLGNDPSFSGASSVSYDKDKKLIAASCSGTLSFKDGSRKVEVTVQKTGFMIP”, which “soluble on expression in E. coli” value is on record?
Answer: not soluble

Question: Which “soluble on expression in E. coli” value does the source give for “MKKTKFSSYEEYRNYFKRLIDLERRAQTELHLKEIKTLSGKEREKRGRAILNLRAKFLGRGLGGVYLVRYSRPQGLPKTEISTGDIVLVSKGKPTVKEVQGTVAEKTNYYLVVAFRDKPPPYALGKDVRIDLFSNEITFKRMEEALKNFKEHPLRDFILGKKVLEHHHHHH” here?
Answer: soluble

Question: With “MDAIILQENIEGLLSLVRMLLPDGGSAGCVYLDDLSALQRSIHEKINDLYSQRGETPEQDATLCLAILQGYNVSMYANPEDEERKQAVLTRSLSLLDVLPPSLLKQQLSAVCYGMQELCEIN” as the sequence, how does the “soluble on expression in E. coli” value read?
Answer: not soluble

Question: With “MSEVLITGLRTRAVNVPLAYPVHTAVGTVGTAPLVLIDLATSAGVVGHSYLFAYTPVALKSLKQLLDDMAAMIVNEPLAPVSLEAMLAKRFCLAGYTGLIRMAAAGIDMAAWDALGKVHETPLVKLLGANARPVQAYDSHSLDGVKLATERAVTAAELGFRAVKTRIGYPALDQDLAVVRSIRQAVGDDFGIMVDYNQSLDVPAAIKRSQALQQEGVTWIEEPTLQHDYEGHQRIQSKLNVPVQMGENWLGPEEMFKALSIGACRLAMPDAMKIGGVTGWIRASALAQQFGIPMSSHLFQEISAHLLAATPTAHWLERLDLAGSVIEPTLTFEGGNAVIPDLPGVGIIWREKEIGKYLV” as the sequence, how does the “soluble on expression in E. coli” value read?
Answer: soluble

Question: Which “soluble on expression in E. coli” value does the source give for “MAHHHHHHMSLMDCKYHKHHLYADKFWWSPSPETNHMRGDAEFKWKGNELIAYGDYNAHMQHPANFVTSSSSGSSGSGAATSKSAAAAAGSKKGASARPWFRRTVVVRKSQASDTKPLSTASKIAAAGTSK” here?
Answer: not soluble

Question: Which “soluble on expression in E. coli” value does the source give for “MGSDKIHHHHHHAATSNKKNTIKLISTNNNIKIPVYDRQGKQINGFTVESGANVTVIGKPIIVQQKYRKDVFEGIKINGKTYASLGDGGYIPINATGVITSKGMKITRDTAVYNKNGKKLSTYRGHTATLKKDSIVKYGGATTYTIPVSYFNIGNGRYVRASYVQEYNGQTVLTLNYNTFVYNKKGKRINYDGQRKLMNGGVVTTNSKIREAKSSDQNYFYSSANYTDKNKLAFTTTKIKGQDYLSIGKGEYIKIANVKTANGMILFTKGPITITLPSDTTIYSSNFKETKKQIAAGKKVILDKTEIDNSLSDPQLYFRIKGTNELIYWGDLGEYPGVDHTAVYDPNYYSIYSFPLRQFME” here?
Answer: not soluble

Question: For “MGSDKIHHHHHHMSNNLLVLQSDFGLVDGAVSAMIGVALQEAPTLGIHNLTHEITPYNIFEASYRLFQTVEYWPQGTTFVSVVDPGVGSDRKSVVALTSRNQYIVTPDNGTLSYIKKHVGIKAVREISEIENRRRNTELSYTFHGRDVYAFTGAKLASDHISFEEVGPELAIESIVELPVVETVIEDNLVRGAVDILDVRFGSLWTSITREEFYTLKPEFNDRFEVTIYNNDMLVYQNQVTYGKSFAAVRIGQPIIYINSLYRVGVAINQGSFANAYNVGVGPQWRIEIKKLN”, which “soluble on expression in E. coli” value is on record?
Answer: not soluble

Question: For “MGSDKIHHHHHHMRRVSIYELDPGMIVARAIFNSEERVLLHAGVELNEKYIHGLQKAGVMSVYIRDELFDESDAVSDIISEKTRLKAIRTLKESFNLLEKKHQLNLHAVKNTVDEIIDEIIANPNTLVSLTDIRSFDDYTYAHSVNVGVLSIMSGVSLNYERSQLKELGVGALLHDIGKIKIDKNILNKPDDLSPEEFTEIKQHSKAGFDILRQHSGLSLLSAHIAFQHHERWDGQGYPRQLSGEEIHEYARIVAVADVYDALVADRPYRPAYSVTQAISILKRMTGLFLDPQCVKAFLNNIAVYPLGCLLELNTGELGAVIDINRKTPAQPVVRVLYDRNWRLLTPYELDLSKNSALVVKNVLSERQIKELKKNL”, which “soluble on expression in E. coli” value is on record?
Answer: not soluble

Question: For “MAATFPLSAGTYSINGRKYRKTAYNLKADTSFDLNTDTTFADTPDIYEDEASADCFAPPGLPELRKRAAKAKIVAKAVETSSKEPEPTEDDRIKVIGGKKWISSINVAPCFIGKLIGTNRRTLNSLENETQCRVKTPRRNENIACEISSIVSLECVQRCLDRLEIFIDDSRKTARVNHFVALPCDQHEVQENFNIFKQMVMESDHFDSSCKNSQLFTKPTRLHLTLSVARIFDDMDLQKAVGAFEILEKEIRQIKDSKPLIADIQGIDMMNDDPSQVFVLYAKVKGDKVQEVANYVNRRLIELGVSSKNEHDNGSDAVKLHMTLMNSRYVTQSEKSGKSKEAALFDAKQVLEDLKDSYFGTFELKEVNFDVKKFKQRI”, which “soluble on expression in E. coli” value is on record?
Answer: not soluble

Question: For “MGSDKIHHHHHHMSESDGQSTPQDTREVIMEATFRALSKHGYKDLRVRDIGEEMEMSRQVIHYHFDGKYDLISSFLEYIIDQYEGSVEVDDETDPRTELDVRIDRCLFGPEFDDFSHWDRMKVYHELYAYAQNDDEHRALFNEHYDRLRKSISTVIEDGVEQGTFLDVDAELMGQLITDVIHAARGRRIALGHEDAPDEAKRAVNDFILDSLYPPQ”, which “soluble on expression in E. coli” value is on record?
Answer: not soluble
